These results are taken from article PMC8860610, “The fork protection complex recruits FACT to reorganize nucleosomes during replication” (Nucleic Acids Research, 2022).

Holding throughout (settings): both partners purified
Assay [1] addresses T1, Spt16 subunit on its own (Saccharomyces cerevisiae, UniProt P32558 1-1035).
T1 construct: Spt16, Saccharomyces cerevisiae, without Pob3; also called Spt16 alone; source: yeast strain yBS2, purified by the same strategy as FACT
As to the kind of experiment: pull-down; 1.5 μM GST fusion proteins (Tof1_N, Tof1_M, Tof1_C, Csm3) as bait on glutathione agarose, 3 μM fl FACT or FACT truncations as prey, 90 min at 4°C, washed with buffer G (300 mM NaCl), eluted with glutathione, SDS-PAGE.

Assay [2] deals with T2, full-length (fl) FACT (Spt16-Pob3) (Saccharomyces cerevisiae, UniProt P32558 1-1035; Q04636 1-552).
T2 construct: Spt16, subunit of FACT, Saccharomyces cerevisiae; Pob3, subunit of FACT, Saccharomyces cerevisiae; His-tag cleaved by TEV protease; also called yFACT when together with Nhp6; source: yeast strain yBS2, galactose-induced, purified (HisTrap, TEV cleavage, Q column, Superdex 200)
Described as above.

The target of assay [3] is T3, FACT consisting of Spt16 and GST-tagged Pob3 (Saccharomyces cerevisiae, UniProt P32558 1-1035; Q04636 1-552).
T3 construct: Spt16, subunit of FACT, Saccharomyces cerevisiae; Pob3, subunit of FACT, Saccharomyces cerevisiae; The methods speak of a His-tag cleaved by TEV protease without telling which subunit carried it; also called GST-Pob3Spt16; GST-tagged Pob3-Spt16; source: yeast strain yBS2, galactose-induced, purified (HisTrap, Q column, Superdex 200)
As to the kind of experiment: pull-down; 0.5 μM GST-Pob3Spt16 as bait with 1 μM replisome factor, on ice 30 min, immobilised on glutathione agarose 90 min at 4°C, washed with buffer G (50 mM HEPES-NaOH pH 7.6, 300 mM NaCl, 0.05% NP-40), eluted with glutathione, SDS-PAGE.

Assay [4] concerns the target T2, full-length (fl) FACT (Spt16-Pob3). The assay is described as follows: pull-down; 1.5 μM CBP-Csm3Tof1 as bait on Calmodulin Affinity Resin, 3 μM fl FACT as prey, 90 min at 4°C, washed with buffer C (25 mM HEPES-NaOH pH 7.6, 300 mM NaCl, 2 mM CaCl2), eluted with EDTA and EGTA, SDS-PAGE.

B1: GST-tagged Tof1_C (938-1238 aa) (domain or fragment, Saccharomyces cerevisiae, UniProt P53840 938-1238, looked up)
chain: PSSSYLLRVRSEKDSFSHNEQDGWEGDDDYDYNDPYIVPDDQILSKSDAAYFKDLDNNASDKLKGTKFSKGIARSKKKDKRKRRKGEAKTNLPMFGDQDDERPQTVRERHGVFSKEFISDSEDDEDLMNPIFFENETYMRWLLDKNNGQLTEDRYIQFAKFAAERMNNGGVVTGDYTSLFGGSIPSIESIRATESSSFAPDKSLISLASHVASEMSIFDVNNNNNNQLSDDDVNSESRNSLGSSQPSNSQNMFQSEVYSRKESTKRSLEASAADESDEDEEAIRLFGKKSRVVLSQGDSDD
notes: Tof1, Saccharomyces cerevisiae, residues 938-1238, codon optimized for bacteria; Cloned into a pET GST-His6-TEV vector; no cleavage is described; source: E. coli BL21 (DE3) codon plus RIL, purified (GSTrap, Q column, Superdex 200)
With B1, the binding result in assay [1] and in assay [2] was “binds” throughout.

B2: Tof1-Csm3 (full-length, CBP-tagged) (complex, Saccharomyces cerevisiae)
chain 1: MSADLQQGTTNAADFSLTVLRARIALLATAIGGPDYTSQIDPPPYKLGDDCLACLKDLKRWFKLVDDQQKRWDVAMAVAEYRILTDDLLPILIDWENKCSLAAKLAKNNPDHEEFRNKAYYDKIALNCLQLLVLMTWPLIVTEQSSSNQITLYGELKKHQLVYKKTILSMESGKVLRAAIRLALDVIKIDRLSRTPRDNMVLKLVLNFFRNVIAIEPGEFTINTKKSMPKKGITSIDTLPPNVSMDDISLNTVISSFHKNKVFGFLLTLTSSLSKEFDQDFINIPLLEIMFYFTKDVNQELLFPRQFETGTHSKVVNKNESSSANNIVTSAGFELSKLLQKEHQMRKNVIKHTSARHSRFGGLLSIQTPDKTRLTVSGSQALVDEKIALQKLDDSKKWNKRIIKKHQSVAAEGLPNSLLNSQTGKAIFFTESNGKHFKEFINNFIDSGFNILLHSVTNYFTTEQDRMVTLEQVEYLLFFAWFVKYQLLRSKIDNSADIKQVSEALKEVTFILVSSLLRSAYDLKNWTVTHAGMIAFNELLNLVSRTKAAQEEDSTDIEFIVSRLFSDERIQLLSNLPKIGSKYSLQFMKSCIELTHSVLKVLEQYSDDKTLVIEGKSRRQKKFNISEGDITKLIEEENVDRDEALDILTSSLRSIEVNFQKVQANYMTEPVIETYINFLERFRELEDDSIKKVFSFFHRVFVQAKEQALLFRFDLIILLREMLSPDGLDRMSRSRKYVSQFSDYFLARLKKRLKKSPAWFVGLLFPPLHNSEVGFYQRYGEYNVLNNESMYAAPASQFKPIPDEEALPPSILLDMKYGVLVSTLLDDGKTELLDQLLKHITHTLDIFKSWLTVNVNAGKETVNPPNEYFTLTGVLNNDPIFKDKDYRALLLLIGYSIPRKINEPCFLPGTVEVSDLTVSCELVKKYLSTPFETPNGLPSSSYLLRVRSEKDSFSHNEQDGWEGDDDYDYNDPYIVPDDQILSKSDAAYFKDLDNNASDKLKGTKFSKGIARSKKKDKRKRRKGEAKTNLPMFGDQDDERPQTVRERHGVFSKEFISDSEDDEDLMNPIFFENETYMRWLLDKNNGQLTEDRYIQFAKFAAERMNNGGVVTGDYTSLFGGSIPSIESIRATESSSFAPDKSLISLASHVASEMSIFDVNNNNNNQLSDDDVNSESRNSLGSSQPSNSQNMFQSEVYSRKESTKRSLEASAADESDEDEEAIRLFGKKSRVVLSQGDSDD
chain 2: MDQDFDSLLLGFNDSDSVQKDPTVPNGLDGSVVDPTIADPTAITARKRRPQVKLTAEKLLSDKGLPYVLKNAHKRIRISSKKNSYDNLSNIIQFYQLWAHELFPKAKFKDFMKICQTVGKTDPVLREYRVSLFRDEMGMSFDVGTRETGQDLERQSPMVEEHVTSAEERPIVADSFAQDKRNVNNVDYDNDEDDDIYHLSYRNRRGRVLDERGNNETVLNNVVPPKEDLDALLKTFRVQGPVGLEENEKKLLLGWLDAHRKMEKGSMTEEDVQLIQSLEEWEMNDIEGQHTHYDLLPGGDEFGVDQDELDAMKEMGF
notes: Tof1, subunit of the fork protection complex, Saccharomyces cerevisiae (1238 aa by the printed truncation limits); Csm3, subunit of the fork protection complex, Saccharomyces cerevisiae; also called CBP-Csm3Tof1; CBP-tagged Csm3-Tof1
On to B2, for which the binding result in assay [3] and in assay [4] was “binds” each time.
